According to paper PMC7038937:

Experiments:
Experiment in all cases: fluorescence anisotropy
STAU1 dsRBD3/4 = STAU1 dsRBD3/4 (Homo sapiens, UniProt O95793-2 102-274)
dsRBD3/4 F109A = dsRBD3/4 F109A (Homo sapiens, UniProt O95793-2 102-274, F109A)
[1] = target: dsRBD3/4 E110A L113A Q212A Q215A (Homo sapiens, UniProt O95793-2 102-274, E110A;L113A;Q212A;Q215A)
dsRBD4 S208A Q212A Q215A = dsRBD4 S208A Q212A Q215A (Homo sapiens, UniProt O95793-2 205-274, S208A;Q212A;Q215A)
dsRBD3 E110A L113A = dsRBD3 E110A L113A (Homo sapiens, UniProt O95793-2 102-181, E110A;L113A)
dsRBD3 I105A S106A = dsRBD3 I105A S106A (Homo sapiens, UniProt O95793-2 102-181, I105A;S106A)
dsRBD3/4 S208A = dsRBD3/4 S208A (Homo sapiens, UniProt O95793-2 102-274, S208A)
dsRBD3/4 Q212A Q215A = dsRBD3/4 Q212A Q215A (Homo sapiens, UniProt O95793-2 102-274, Q212A;Q215A)
[2] = target: dsRBD3/4 I105A S106A E110A L113A (Homo sapiens, UniProt O95793-2 102-274, I105A;S106A;E110A;L113A)
STAU1 dsRBD3 = STAU1 dsRBD3 (Homo sapiens, UniProt O95793-2 102-181)
dsRBD3/4 R209A = dsRBD3/4 R209A (Homo sapiens, UniProt O95793-2 102-274, R209A)
dsRBD3/4 E110A L113A = dsRBD3/4 E110A L113A (Homo sapiens, UniProt O95793-2 102-274, E110A;L113A)
dsRBD3/4 K133A = dsRBD3/4 K133A (Homo sapiens, UniProt O95793-2 102-274, K133A)
[3] = target: dsRBD3/4 I105A S106A S208A Q212A Q215A (Homo sapiens, UniProt O95793-2 102-274, I105A;S106A;S208A;Q212A;Q215A)
dsRBD3/4 I105A S106A = dsRBD3/4 I105A S106A (Homo sapiens, UniProt O95793-2 102-274, I105A;S106A)
STAU1 dsRBD4 = STAU1 dsRBD4 (Homo sapiens, UniProt O95793-2 205-274)
dsRBD4 Q212A Q215A = dsRBD4 Q212A Q215A (Homo sapiens, UniProt O95793-2 205-274, Q212A;Q215A)
[4] = target: dsRBD3/4 S208A Q212A Q215A (Homo sapiens, UniProt O95793-2 102-274, S208A;Q212A;Q215A)
dsRBD3/4 F109A R209A = dsRBD3/4 F109A R209A (Homo sapiens, UniProt O95793-2 102-274, F109A;R209A)
dsRBD3 F109A = dsRBD3 F109A (Homo sapiens, UniProt O95793-2 102-181, F109A)
dsRBD3/4 R234A R236A = dsRBD3/4 R234A R236A (Homo sapiens, UniProt O95793-2 102-274, R234A;R236A)
Sequence of dsRBD3/4 R234A R236A (O95793 183-355 R315A/R317A): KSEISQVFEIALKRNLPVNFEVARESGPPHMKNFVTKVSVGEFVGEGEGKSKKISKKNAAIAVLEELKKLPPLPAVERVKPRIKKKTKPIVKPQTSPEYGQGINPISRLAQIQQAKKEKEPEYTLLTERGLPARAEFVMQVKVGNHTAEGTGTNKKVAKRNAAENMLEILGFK

Sequence of STAU1 dsRBD3/4 (O95793 183-355): as the sequence (O95793 183-355 R315A/R317A) above, with A133R, A135R counted along it
Sequence of dsRBD3/4 S208A Q212A Q215A (O95793 183-355 S289A/Q293A/Q296A): as the sequence (O95793 183-355 R315A/R317A) above, with S107A, Q111A, Q114A, A133R, A135R counted along it
Sequence of dsRBD3/4 R209A (O95793 183-355 R290A): as the sequence (O95793 183-355 R315A/R317A) above, with R108A, A133R, A135R counted along it
Sequence of dsRBD3/4 S208A (O95793 183-355 S289A): as the sequence (O95793 183-355 R315A/R317A) above, with S107A, A133R, A135R counted along it
Sequence of dsRBD3/4 E110A L113A (O95793 183-355 E191A/L194A): as the sequence (O95793 183-355 R315A/R317A) above, with E9A, L12A, A133R, A135R counted along it
Sequence of dsRBD3/4 F109A R209A (O95793 183-355 F190A/R290A): as the sequence (O95793 183-355 R315A/R317A) above, with F8A, R108A, A133R, A135R counted along it
Sequence of STAU1 dsRBD4 (O95793 286-355): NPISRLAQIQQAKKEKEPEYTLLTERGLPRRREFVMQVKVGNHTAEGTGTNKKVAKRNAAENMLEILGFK
Sequence of dsRBD4 Q212A Q215A (O95793 286-355 Q293A/Q296A): as the sequence (O95793 286-355) above, with Q8A, Q11A counted along it
Sequence of dsRBD3/4 I105A S106A S208A Q212A Q215A (O95793 183-355 I186A/S187A/S289A/Q293A/Q296A): as the sequence (O95793 183-355 R315A/R317A) above, with I4A, S5A, S107A, Q111A, Q114A, A133R, A135R counted along it
Sequence of dsRBD3/4 I105A S106A (O95793 183-355 I186A/S187A): as the sequence (O95793 183-355 R315A/R317A) above, with I4A, S5A, A133R, A135R counted along it
Sequence of dsRBD3 E110A L113A (O95793 183-262 E191A/L194A): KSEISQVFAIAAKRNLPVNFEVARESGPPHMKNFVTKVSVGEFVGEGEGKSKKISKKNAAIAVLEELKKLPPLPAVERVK
Sequence of dsRBD3/4 K133A (O95793 183-355 K214A): as the sequence (O95793 183-355 R315A/R317A) above, with K32A, A133R, A135R counted along it
Sequence of STAU1 dsRBD3 (O95793 183-262): as the sequence (O95793 183-262 E191A/L194A) above, with A9E, A12L counted along it
Sequence of dsRBD3/4 E110A L113A Q212A Q215A (O95793 183-355 E191A/L194A/Q293A/Q296A): as the sequence (O95793 183-355 R315A/R317A) above, with E9A, L12A, Q111A, Q114A, A133R, A135R counted along it
Sequence of dsRBD3 F109A (O95793 183-262 F190A): as the sequence (O95793 183-262 E191A/L194A) above, with F8A, A9E, A12L counted along it
Sequence of dsRBD4 S208A Q212A Q215A (O95793 286-355 S289A/Q293A/Q296A): as the sequence (O95793 286-355) above, with S4A, Q8A, Q11A counted along it
Sequence of dsRBD3/4 Q212A Q215A (O95793 183-355 Q293A/Q296A): as the sequence (O95793 183-355 R315A/R317A) above, with Q111A, Q114A, A133R, A135R counted along it
Sequence of dsRBD3 I105A S106A (O95793 183-262 I186A/S187A): as the sequence (O95793 183-262 E191A/L194A) above, with I4A, S5A, A9E, A12L counted along it
Sequence of dsRBD3/4 I105A S106A E110A L113A (O95793 183-355 I186A/S187A/E191A/L194A): as the sequence (O95793 183-355 R315A/R317A) above, with I4A, S5A, E9A, L12A, A133R, A135R counted along it
Sequence of dsRBD3/4 F109A (O95793 183-355 F190A): as the sequence (O95793 183-355 R315A/R317A) above, with F8A, A133R, A135R counted along it

GGAGUGCCAGAAGCUACGGUUUCUGGUACUCC (structured_RNA) [bottom 2/3 ARF1 SBS]
Kd (STAU1 dsRBD3/4): 31 ± 0.1 nM

GGCGAGUGCCAGAAGCUGUCUCCUUCGGGAGGCAGUUUCUGGUACUCGCC (structured_RNA) [long ARF1 SBS (19 bp, UUCG loop)]
Kd (STAU1 dsRBD3/4): 26.5 ± 2.9 nM

GGCAGAAGCUGCCUCUUCGGAGGCAGUUUCUGCC (structured_RNA) [top 2/3 ARF1 SBS (sARF1 SBS)]
Kd (dsRBD3/4 F109A): 29.7 ± 5.8 nM
Kd [1]: 18.5 ± 1.1 nM
Kd (dsRBD4 S208A Q212A Q215A): 390 ± 38.4 nM
Kd (dsRBD3 E110A L113A): 31.5 ± 1.7 nM
Kd (dsRBD3 I105A S106A): 147 ± 35.6 nM
Kd (dsRBD3/4 S208A): 28 ± 4.4 nM
Kd (dsRBD3/4 Q212A Q215A): 15.3 ± 0.7 nM
Kd [2]: 21.8 ± 6.4 nM
Kd (STAU1 dsRBD3): 41.4 ± 1.5 nM
Kd (dsRBD3/4 R209A): 17.7 ± 4.1 nM
Kd (dsRBD3/4 E110A L113A): 18.5 ± 4.3 nM
Kd (dsRBD3/4 K133A): 23.2 ± 9.7 nM
Kd [3]: 43.7 ± 5.2 nM
Kd (dsRBD3/4 I105A S106A): 28.8 ± 2.7 nM
Kd (STAU1 dsRBD4): 74.8 ± 17.6 nM
Kd (dsRBD4 Q212A Q215A): 121 ± 15 nM
Kd [4]: 87.2 ± 3 nM
Kd (STAU1 dsRBD3/4): 17.8 ± 4.3 nM
Kd (dsRBD3/4 F109A R209A): 27.7 ± 5.5 nM
Kd (dsRBD3 F109A): 98.2 ± 8.7 nM
Kd (dsRBD3/4 R234A R236A): 26 ± 9.1 nM
